Values joined by “and” are separate entries in the source; they are usually repeats but may differ in a detail not shown here. Equal entries are not always repeated.
Details: Bos taurus, Fluorescence, whole UniProt chain shown; for denaturant m value / denaturant midpoint (higher = more stable) / unfolding free energy: 25 °C, GdnHCl, CaCl2 20 mM
[1] = pH 5.8, MES 30 mM, reversible: yes
[2] = pH 4.2, Thermal, acetate 30 mM, reversible: yes
[3] = pH 7.5, Tris-HCl 0.1 M, reversible: no
[4] = pH 8.3, Tris-HCl 0.1 M, reversible: no

Protein | denaturant m value [1] [kcal/mol/M] | denaturant midpoint (higher = more stable) [1] [M] | unfolding free energy [1] [kcal/mol] | Tm [2] | heat capacity change of unfolding [2] | unfolding enthalpy (van 't Hoff) [2] | denaturant m value [3] [kcal/mol/M] | denaturant midpoint (higher = more stable) [3] [M] | unfolding free energy [3] [kcal/mol] | denaturant m value [4] [kcal/mol/M] | denaturant midpoint (higher = more stable) [4] [M] | unfolding free energy [4] [kcal/mol]
Anionic trypsin wild type, Q29463 (protein) MHPLLILAFVGAAVAFPSDDDDKIVGGYTCAENSVPYQVSLNAGYHFCGGSLINDQWVVSAAHCYQYHIQVRLGEYNIDVLEGGEQFIDASKIIRHPKYSSWTLDNDILLIKLSTPAVINARVSTLLLPSACASAGTECLISGWGNTLSSGVNYPDLLQCLVAPLLSHADCEASYPGQITNNMICAGFLEGGKDSCQGDSGGPVACNGQLQGIVSWGYGCAQKGKPGVYTKVCNYVDWIQETIAANS | 5.74 | 2.19 | 12.5 | – | – | – | – | – | – | – | – | –
Serine protease 1 wild type, P00760 (protein) MKTFIFLALLGAAVAFPVDDDDKIVGGYTCGANTVPYQVSLNSGYHFCGGSLINSQWVVSAAHCYKSGIQVRLGEDNINVVEGNEQFISASKSIVHPSYNSNTLNNDIMLIKLKSAASLNSRVASISLPTSCASAGTQCLISGWGNTKSSGTSYPDVLKCLKAPILSDSSCKSAYPGQITSNMFCAGYLEGGKDSCQGDSGGPVVCSGKLQGIVSWGSGCAQKNKPGVYTKVCNYVSWIKQTIASN | – | – | – | 66 °C and 65 °C | 3.09 kcal/mol/K and 2.64 kcal/mol/K | 150 kcal/mol and 164 kcal/mol | 4.22 | 2.5 | 10.6 | 4.1 | 2.27 | 9.3

Source: FireProtDB (doi:10.1006/jmbi.1995.0174)
